Experimental data from patent publication US20180237502A1 (INTEGRATED BIOTHERAPEUTICS, published 2018).

T1: EBOV GPdTM (Ebola virus (EBOV), UniProt Q05320 33-637)
T1 sequence: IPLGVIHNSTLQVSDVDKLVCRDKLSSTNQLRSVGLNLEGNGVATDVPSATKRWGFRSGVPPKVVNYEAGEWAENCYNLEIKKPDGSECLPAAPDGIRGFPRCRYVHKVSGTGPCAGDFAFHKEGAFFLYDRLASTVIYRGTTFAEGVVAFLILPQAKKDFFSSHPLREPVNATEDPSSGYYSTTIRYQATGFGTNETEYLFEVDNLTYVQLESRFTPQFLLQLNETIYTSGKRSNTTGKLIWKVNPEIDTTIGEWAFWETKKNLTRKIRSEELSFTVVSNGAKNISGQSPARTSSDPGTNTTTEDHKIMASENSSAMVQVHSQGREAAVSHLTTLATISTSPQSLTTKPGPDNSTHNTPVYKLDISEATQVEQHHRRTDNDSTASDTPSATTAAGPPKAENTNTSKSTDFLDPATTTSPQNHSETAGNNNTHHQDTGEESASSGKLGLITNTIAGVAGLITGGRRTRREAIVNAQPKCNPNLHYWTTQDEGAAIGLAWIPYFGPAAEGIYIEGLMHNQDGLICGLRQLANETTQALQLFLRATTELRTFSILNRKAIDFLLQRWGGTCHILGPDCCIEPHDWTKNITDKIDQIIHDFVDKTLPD

T2: MARV GPdTM (Marburg virus (MARV), UniProt P35253 19-637)
T2 construct: also called Marburg virus glycoprotein GPdTM
T2 sequence: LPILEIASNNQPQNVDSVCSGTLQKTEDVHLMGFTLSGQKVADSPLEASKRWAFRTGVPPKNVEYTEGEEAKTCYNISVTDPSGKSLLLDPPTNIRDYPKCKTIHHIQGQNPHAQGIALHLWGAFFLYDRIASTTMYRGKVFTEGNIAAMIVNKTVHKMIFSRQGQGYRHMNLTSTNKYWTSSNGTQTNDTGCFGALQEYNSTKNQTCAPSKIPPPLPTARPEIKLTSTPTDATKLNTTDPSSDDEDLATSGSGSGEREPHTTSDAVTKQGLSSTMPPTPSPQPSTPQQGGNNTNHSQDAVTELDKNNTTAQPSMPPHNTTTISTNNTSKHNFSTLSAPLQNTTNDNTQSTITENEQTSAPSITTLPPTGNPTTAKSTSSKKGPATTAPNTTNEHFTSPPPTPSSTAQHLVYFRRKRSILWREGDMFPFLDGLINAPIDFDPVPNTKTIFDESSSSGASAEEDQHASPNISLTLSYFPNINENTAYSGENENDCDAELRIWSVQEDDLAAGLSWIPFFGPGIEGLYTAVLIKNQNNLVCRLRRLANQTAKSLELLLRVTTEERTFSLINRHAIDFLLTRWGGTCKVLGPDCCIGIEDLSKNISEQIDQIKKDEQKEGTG

T3: RESTV GPdTM (Reston virus (RESTV), UniProt Q66799 34-638)
T3 construct: also called Reston virus glycoprotein GPdTM
T3 sequence: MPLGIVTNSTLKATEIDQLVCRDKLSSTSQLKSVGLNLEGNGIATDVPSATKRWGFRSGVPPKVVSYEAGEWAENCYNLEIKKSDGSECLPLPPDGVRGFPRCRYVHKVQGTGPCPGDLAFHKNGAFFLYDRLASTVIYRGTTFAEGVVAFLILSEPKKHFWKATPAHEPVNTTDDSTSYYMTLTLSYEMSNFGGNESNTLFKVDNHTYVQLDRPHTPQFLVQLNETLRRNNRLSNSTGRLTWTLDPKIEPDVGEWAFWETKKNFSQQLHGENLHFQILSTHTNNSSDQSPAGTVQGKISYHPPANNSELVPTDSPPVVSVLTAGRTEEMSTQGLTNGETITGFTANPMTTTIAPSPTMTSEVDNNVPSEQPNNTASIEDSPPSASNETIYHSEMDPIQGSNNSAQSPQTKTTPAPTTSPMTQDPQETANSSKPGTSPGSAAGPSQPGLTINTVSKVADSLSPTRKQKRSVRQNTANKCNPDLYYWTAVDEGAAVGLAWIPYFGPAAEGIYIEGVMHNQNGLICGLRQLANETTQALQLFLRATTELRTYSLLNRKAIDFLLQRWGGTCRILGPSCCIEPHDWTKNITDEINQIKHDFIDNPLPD

B1: murine monoclonal antibody 8C4 (antibody, V domains shown)
VH: EVQLQESGPELKKPGETVKISCKASGYTFTTYGMSWVKQAPGKGLKWMGRINTYSGVPTYADEFKGRFAFSLENSASTAYLQINNLKNEDTATYFCARGDGGHWFANWGQGTLVTVSA
VL: DIQMTQSPSSLSASLGGKVTITCKASQDINKNIAWYQHKPGKGPRLLIWYKSALQPGIPSRFSGSGSGRDYSFSISNLEPEDIATYSCLQYDNLPPTFGGGTKLEIKR
notes: also called m8C4
B2: murine monoclonal antibody 2D8 (antibody, V domains shown)
VH: EVQLQESGGELVRPGTSVKISCKASGYTFTNFWLGWIKERPGHGLEWIGDIYPGGHYTNYNENFKGKATLTADTSSNTAYMQVSSLTSEDSAVYFCFTQYYDMDYWGQGTSVTVSS
VL: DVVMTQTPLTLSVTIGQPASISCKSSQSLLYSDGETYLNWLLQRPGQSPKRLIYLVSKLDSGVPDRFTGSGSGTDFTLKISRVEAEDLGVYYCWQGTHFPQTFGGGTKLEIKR
B3: murine monoclonal antibody 4B8 (antibody, V domains shown)
VH: EVQLQESGPGILQPSQTLSLTCSFSGFSLRTLGMGVGWIRQSSGKGLEWLAHIWWSDENYYNPALKSRLTISKDTSKNQVFLRIANVDTAETATYYCARIAYDGYFDYWGQGTSLTVSS
VL: KFPSQLLLLLLFGIPGDRVTITCKASEDIYNRLAWYQQKPGNAPRLLISGATSLETGVPSRFSGSGSGKDYTLSITSLQTEDVATYYCQQYWTTPWTFGGGTKLEIKR
notes: also called m4B8
B4: murine monoclonal antibody 16G8 (antibody, V domains shown)
VH: EVQLQESGPGLVKPGASVKISCKASGYSFTGYYMNWVKQSPEKSLEWIGEINPSTGGTTYNQKFKAKATLTVDKSSSTAYMQLKSLTSEDSAVYYCVRYSHYYGSGSWYFDVWGTGTTVTVSS
VL: DIQMTQSPASLSASVGETVTITCRASENIYSNLAWYQQKQGKSPQLLVNAATNLADGVPSRFSGSGSGTQFSLKINSLQPEDFGSYYCQHFYVTPYMFGSGTKLEIKR
notes: also called m16G8
B5: murine monoclonal antibody 21B2 (antibody, V domains shown)
VH: EVQLQESGAELVRPGASVTLSCKTSGYTFTDYEMHWVKQTPVHGLEWIGAIDPETGGTAYNQKFKGKATLTADKSSSTAYMELSRLTSEDSAVYYCTGNYATDYWGQGTSVTVSS
VL: DIVMSQSPSSLAVSAGEKVTMSCKSSQSLFNSRSRKNYLAWYQLKPGQSPKLLIYWASTRESGVPDRFTGSGSGTDFTLTISSVQAEDLAVYYCKQSNYLWTFGGGTKLEIKR
notes: also called m21B2
B6: murine monoclonal antibody 17C6 (antibody, V domains shown)
VH: EVQLQESGPGLVQPSQSLSITCTVSGFSLTSYGVHWVRQSPGKGLEWLGVIWSGGSTDYNAAFISRLSISKDNSKSQVFFKMNSLQADDTAIYYCARNWFDYDNYYSMDYWGQGTSVTVSS
VL: DIQMTQTTSSLSASLGDRVTISCRASQDISNYLNWYQQKPDGTVKLLIYYTSRLHSGVPSRFSGSGSGTDFSLTISNQEPEDIATYYCQQYSNLPWTFGGGTKLEIKR

Assays:
EBOV GPdTM [1] = molecular target: T1, EBOV GPdTM
MARV GPdTM [2] = molecular target: T2, MARV GPdTM; assay: ELISA, purified GPdTM immobilized, serial dilutions of purified mouse mAb
RESTV GPdTM [3] = molecular target: T3, RESTV GPdTM; assay: as above
MARV GPdTM [4] = molecular target: T2, MARV GPdTM
RESTV GPdTM [5] = molecular target: T3, RESTV GPdTM
EBOV GPdTM [6] = molecular target: T1, EBOV GPdTM; assay: ELISA, purified GPdTM immobilized, serial dilutions of purified mouse mAb

Binder | EC50 (EBOV GPdTM [1]) [µg/mL] | binding result (MARV GPdTM [2]) | binding result (RESTV GPdTM [3]) | EC50 (MARV GPdTM [4]) [µg/mL] | EC50 (RESTV GPdTM [5]) [µg/mL] | binding result (EBOV GPdTM [6])
B1 | 0.26 | no binding | no binding |  |  | 
B2 | > 10 |  |  | 0.0445 |  | 
B3 |  | no binding |  |  | 0.157 | 
B4 | > 10 | no binding |  |  | > 10 | 
B5 |  |  |  | 0.0688 |  | no binding
B6 | 0.04 |  |  |  | 1.56 | 
